The target of the experiment is T1, proPpiA (UniProt P0AFL3).
T1 sequence: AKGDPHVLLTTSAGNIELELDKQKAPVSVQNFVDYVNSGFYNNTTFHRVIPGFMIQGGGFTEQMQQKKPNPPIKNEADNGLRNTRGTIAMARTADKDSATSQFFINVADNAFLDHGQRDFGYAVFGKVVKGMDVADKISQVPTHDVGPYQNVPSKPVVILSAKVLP

Sequence of SecB (P0AG86 whole entry): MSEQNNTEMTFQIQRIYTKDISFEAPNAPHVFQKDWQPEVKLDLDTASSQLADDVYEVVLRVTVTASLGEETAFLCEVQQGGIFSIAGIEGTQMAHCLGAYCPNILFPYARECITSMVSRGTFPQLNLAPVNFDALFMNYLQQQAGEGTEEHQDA

The substance “SecB (from UniProt P0AG86 1-155) (natural protein)” displayed a solubility of proPpiA after dilution from urea (18 µM protein, 30 min, centrifugation at 20,000× g), with 108 µM SecB; buffer control ~30% soluble of 70%.

Values taken from PMC12691745.
